Publication doi:10.1101/2021.03.31.437858
Each block holds one substance with its values, some of them ahead of it.

What was measured:
Test in all cases: native gel or EMSA
[1] = molecular target: complex V (CV) (bovine (endogenous in bovine heart mitochondria))
[2] = molecular target: complex III (CIII) (bovine (endogenous in bovine heart mitochondria))
[3] = molecular target: Apoptosis Inducing Factor 1 (AIFM1) (bovine (endogenous in bovine heart mitochondria))
[4] = molecular target: cytochrome c oxidase (COX), monomeric (bovine (endogenous in bovine heart mitochondria)) (UniProt P00429)
UniProt P00429, sequence (P00429 whole entry, looked up): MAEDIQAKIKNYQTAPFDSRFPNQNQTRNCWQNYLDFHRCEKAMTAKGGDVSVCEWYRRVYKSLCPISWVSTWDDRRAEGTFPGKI

stoichiometry N [1]: 2
Substance: complex V (CV)

stoichiometry N [2]: 2
Substance: complex III (CIII)

stoichiometry N [3]: 2 | percent of monomeric COX engaged in the complex [4]: 10% | stoichiometry N (AIFM1 per COX monomer) [4]: 2
Substance: Apoptosis Inducing Factor 1 (AIFM1) (natural protein)
